Assay results published in paper PMC10334784 (Proceedings of the National Academy of Sciences of the …, 2023).

B1: CCL11 (ligand)
chain: not shown
B2: CCL28 (ligand)
chain: SEAILPIASSCCTEVSHHISRRLLERVNMCRIQRADGDCDLAAVILHVKRRRICVSPHNHTVKQWMKVQAAKKNGKGNVCHRKKHHGKRNSNRAHQGKHETYGHKTPY
B3: CCL21 (ligand)
chain: SDGGAQDCCLKYSQRKIPAKVVRSYRKQEPSLGCSIPAILFLPRKRSQAELCADPKELWVQQLMQHLDKTPSPQKPAQGCRKDRGASKTGKKGKGSKGCKRTERSQTPKGP
B4: CXCL9 (ligand)
chain: TPVVRKGRCSCISTNQGTIHLQSLKDLKQFAPSPSCEKIEIIATLKNGVQTCLNPDSADVKELIKKWEKQVSQKKKQKNGKKHQKKKVLKVRKSQRSRQKKTT
B5: HCoV-OC43 nucleocapsid (N) protein, 2X-StrepTag tagged (natural protein)
chain: MSFTPGKQSSSRASSGNRSGNGILKWADQSDQVRNVQTRGRRAQPKQTATSQQPSGGNVVPYYSWFSGITQFQKGKEFEFVEGQGPPIAPGVPATEAKGYWYRHNRGSFKTADGNQRQLLPRWYFYYLGTGPHAKDQYGTDIDGVYWVASNQADVNTPADIVDRDPSSDEAIPTRFPPGTVLPQGYYIEGSGRSAPNSRSTSRTSSRASSAGSRSRANSGNRTPTSGVTPDMADQIASLVLAKLGKDATKPQQVTKHTAKEVRQKILNKPRQKRSPNKQCTVQQCFGKRGPNQNFGGGEMLKLGTSDPQFPILAELAPTAGAFFFGSRLELAKVQNLSGNPDEPQKDVYELRYNGAIRFDSTLSGFETIMKVLNENLNAYQQQDGMMNMSPKPQRQRGHKNGQGENDNISVAVPKSRVQQNKSRELTAEDISLLKKMDEPYTEDTSEI
B6: CXCL13 (ligand)
chain: VLEVYYTSLRCRCVQESSVFIPRRFIDRIQILPRGNGCPRKEIIVWKKNKSIVCVDPQAEWIQRMMEVLRKRSSSTLPVPVFKRKIP
B7: CXCL14 (ligand)
chain: SKCKCSRKGPKIRYSDVKKLEMKPKYPHCEEKMVIITTKSVSRYRGQEHCLHPKLQSTKRFIKWYNAWNEKRRVYEE
B8: CCL26 (ligand)
chain: TRGSDISKTCCFQYSHKPLPWTWVRSYEFTSNSCSQRAVIFTTKRGKKVCTHPRKKWVQKYISLLKTPKQL
B9: CCL5 (ligand)
chain: SPYSSDTTPCCFAYIARPLPRAHIKEYFYTSGKCSNPAVVFVTRKNRQVCANPEKKWVREYINSLEMS
B10: IL27 (complex)
chain 1: FPRPPGRPQLSLQELRREFTVSLHLARKLLSEVRGQAHRFAESHLPGVNLYLLPLGEQLPDVSLTFQAWRRLSDPERLCFISTTLQPFHALLGGLGTQGRWTNMERMQLWAMRLDLRDLQRHLRFQVLAAGFNLPEEEEEEEEEEEEERKGLLPGALGSALQGPAQVSWPQLLSTYRLLHSLELVLSRAVRELLLLSKAGHSVWPLGFPTLSPQP
chain 2: RKGPPAALTLPRVQCRASRYPIAVDCSWTLPPAPNSTSPVSFIATYRLGMAARGHSWPCLQQTPTSTSCTITDVQLFSMAPYVLNVTAVHPWGSSSSFVPFITEHIIKPDPPEGVRLSPLAERQLQVQWEPPGSWPFPEIFSLKYWIRYKRQGAARFHRVGPIEATSFILRAVRPRARYYVQVAAQDLTDYGELSDWSLPATATMSLGK
B11: CCL25 (ligand)
chain: QGVFEDCCLAYHYPIGWAVLRRAWTYRIQEVSGSCNLPAAIFYLPKRHRKVCGNPKSREVQRAMKLLDARNKVFAKLHHNTQTFQAGPHAVKKLSSGNSKLSSSKFSNPISSSKRNVSLLISANSGL
B12: CXCL11 (ligand)
chain: FPMFKRGRCLCIGPGVKAVKVADIEKASIMYPSNNCDKIEVIITLKENKGQRCLNPKSKQARLIIKKVERKNF
B13: CCL13 (ligand)
chain: not shown

Tests used:
[1] = biological target: B5; experiment: BLI
CXCL12α = CXCL12α (human, UniProt P48061-2 22-89); experiment: BLI
Sequence of CXCL12α (P48061 22-89): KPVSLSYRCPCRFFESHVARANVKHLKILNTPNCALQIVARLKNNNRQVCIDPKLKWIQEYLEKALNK

| Binder | Kd [1] | koff [1] | kon [1] | Kd (CXCL12α) | koff (CXCL12α) | kon (CXCL12α) |
| --- | --- | --- | --- | --- | --- | --- |
| B1 | 1400 nM | 0.021 s⁻¹ | 17000 M⁻¹ s⁻¹ |  |  |  |
| B2 | 27 nM | 0.0015 s⁻¹ | 60000 M⁻¹ s⁻¹ |  |  |  |
| B3 | 290 nM | 0.012 s⁻¹ | 67000 M⁻¹ s⁻¹ |  |  |  |
| B4 | 29 nM | 0.0022 s⁻¹ | 82000 M⁻¹ s⁻¹ |  |  |  |
| B5 |  |  |  | 0.46 nM | 3.7e-05 s⁻¹ | 62000 M⁻¹ s⁻¹ |
| B6 | 140 nM | 0.0046 s⁻¹ | 44000 M⁻¹ s⁻¹ |  |  |  |
| B7 | 580 nM | 0.0063 s⁻¹ | 12000 M⁻¹ s⁻¹ |  |  |  |
| B8 | 620 nM | 0.014 s⁻¹ | 20000 M⁻¹ s⁻¹ |  |  |  |
| B9 | 56000 nM | 0.015 s⁻¹ | 2100 M⁻¹ s⁻¹ |  |  |  |
| B10 | 55 nM | 0.0024 s⁻¹ | 51000 M⁻¹ s⁻¹ |  |  |  |
| B11 | 610 nM | 0.0048 s⁻¹ | 8300 M⁻¹ s⁻¹ |  |  |  |
| B12 | 730 nM | 0.012 s⁻¹ | 18000 M⁻¹ s⁻¹ |  |  |  |
| B13 | 1600 nM | 0.025 s⁻¹ | 19000 M⁻¹ s⁻¹ |  |  |  |
